{
  "source": "paper PMC12903045",
  "molecular_target": "NaV1.5 (main cardiac voltage-gated sodium channel) (mouse (endogenous in heart)) (UniProt Q9JJV9)",
  "sequence (Q9JJV9 whole entry)": "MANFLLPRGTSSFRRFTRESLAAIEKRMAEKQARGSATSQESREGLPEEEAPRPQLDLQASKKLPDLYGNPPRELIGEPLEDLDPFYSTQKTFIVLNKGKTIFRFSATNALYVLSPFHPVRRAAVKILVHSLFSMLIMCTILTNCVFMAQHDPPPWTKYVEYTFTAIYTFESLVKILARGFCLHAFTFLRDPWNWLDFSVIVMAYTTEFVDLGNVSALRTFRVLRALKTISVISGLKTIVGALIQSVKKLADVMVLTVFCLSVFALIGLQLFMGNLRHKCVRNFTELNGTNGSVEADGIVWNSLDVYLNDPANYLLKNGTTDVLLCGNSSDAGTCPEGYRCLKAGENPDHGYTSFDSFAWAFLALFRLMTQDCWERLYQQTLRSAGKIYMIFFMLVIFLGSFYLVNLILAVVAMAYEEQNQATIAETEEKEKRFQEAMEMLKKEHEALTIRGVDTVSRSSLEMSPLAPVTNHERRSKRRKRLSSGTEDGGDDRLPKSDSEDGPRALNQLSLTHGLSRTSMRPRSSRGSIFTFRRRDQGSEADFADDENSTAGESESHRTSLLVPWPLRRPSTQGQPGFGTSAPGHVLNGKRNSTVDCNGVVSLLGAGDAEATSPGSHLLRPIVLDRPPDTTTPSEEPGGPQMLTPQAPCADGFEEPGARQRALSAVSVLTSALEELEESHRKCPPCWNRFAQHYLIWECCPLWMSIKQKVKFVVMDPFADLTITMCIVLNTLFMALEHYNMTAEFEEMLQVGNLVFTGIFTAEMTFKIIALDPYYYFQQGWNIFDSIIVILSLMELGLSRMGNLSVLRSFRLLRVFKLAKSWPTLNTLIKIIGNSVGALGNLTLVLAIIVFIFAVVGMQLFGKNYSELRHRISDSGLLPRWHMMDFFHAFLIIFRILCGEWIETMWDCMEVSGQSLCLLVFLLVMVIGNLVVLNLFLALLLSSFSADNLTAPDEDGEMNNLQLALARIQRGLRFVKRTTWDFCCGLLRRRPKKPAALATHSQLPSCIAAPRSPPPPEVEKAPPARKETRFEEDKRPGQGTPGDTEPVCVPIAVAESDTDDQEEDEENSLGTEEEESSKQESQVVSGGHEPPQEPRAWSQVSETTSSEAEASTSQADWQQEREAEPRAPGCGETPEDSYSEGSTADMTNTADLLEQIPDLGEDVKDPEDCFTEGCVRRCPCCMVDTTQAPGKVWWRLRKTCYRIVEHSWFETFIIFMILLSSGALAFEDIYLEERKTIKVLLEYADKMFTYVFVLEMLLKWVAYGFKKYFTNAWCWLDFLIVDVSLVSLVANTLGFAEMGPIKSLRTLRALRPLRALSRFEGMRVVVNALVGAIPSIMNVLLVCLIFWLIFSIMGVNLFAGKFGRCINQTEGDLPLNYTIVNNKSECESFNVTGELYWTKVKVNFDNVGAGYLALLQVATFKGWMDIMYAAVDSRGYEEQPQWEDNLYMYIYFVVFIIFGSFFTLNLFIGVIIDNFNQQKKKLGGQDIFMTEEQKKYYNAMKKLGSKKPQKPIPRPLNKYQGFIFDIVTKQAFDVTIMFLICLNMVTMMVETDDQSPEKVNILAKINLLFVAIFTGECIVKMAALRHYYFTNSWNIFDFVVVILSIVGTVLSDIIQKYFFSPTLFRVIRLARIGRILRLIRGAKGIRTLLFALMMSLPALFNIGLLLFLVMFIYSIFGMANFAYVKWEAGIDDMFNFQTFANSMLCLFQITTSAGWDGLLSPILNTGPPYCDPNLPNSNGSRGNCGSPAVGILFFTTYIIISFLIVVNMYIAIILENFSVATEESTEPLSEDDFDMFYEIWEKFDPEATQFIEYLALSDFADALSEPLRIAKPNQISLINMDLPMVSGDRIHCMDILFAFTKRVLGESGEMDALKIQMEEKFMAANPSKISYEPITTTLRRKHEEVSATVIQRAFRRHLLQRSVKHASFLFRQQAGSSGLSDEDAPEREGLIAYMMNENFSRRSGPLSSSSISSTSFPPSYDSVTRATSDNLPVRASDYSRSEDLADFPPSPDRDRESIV",
  "experiment": "co-IP",
  "data": [
    {"substance": "FGF13 (fibroblast growth factor homologous factor 13) (from UniProt P70377 1-245) (natural protein)", "values": [
      {"measurement": "percent of FGF13 depleted from the lysate by immunoprecipitation of NaV1.5", "result": 35, "unit": "%"}
    ]}
  ]
}
